Test results published in patent US20200148774A1 (Genentech, published 2020).
Substitutions are numbered along the chain they refer to.

T1: human CLL-1 on cells (endogenous on HL-60, EOL-1 and other AML cell lines and CD14+ monocytes); recombinant on … (human, UniProt Q5QGZ9 1-265)
T1 sequence: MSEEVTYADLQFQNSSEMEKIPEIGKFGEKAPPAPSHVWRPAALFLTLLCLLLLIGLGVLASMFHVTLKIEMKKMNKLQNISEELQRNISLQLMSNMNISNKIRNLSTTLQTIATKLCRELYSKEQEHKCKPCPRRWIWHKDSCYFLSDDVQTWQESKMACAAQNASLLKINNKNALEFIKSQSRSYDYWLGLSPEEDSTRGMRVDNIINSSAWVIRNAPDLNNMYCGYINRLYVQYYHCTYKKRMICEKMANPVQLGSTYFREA

T2: recombinant human CLL-1 extracellular domain (ECD, amino acids 65-265) fused to an N-terminal Flag (human, UniProt Q5QGZ9 65-265)
T2 construct: The construct and the K244Q SNP are stated for the immunogen; they are not written as a piece; also called huCLL-1-Flag; huCLL-1
T2 chain: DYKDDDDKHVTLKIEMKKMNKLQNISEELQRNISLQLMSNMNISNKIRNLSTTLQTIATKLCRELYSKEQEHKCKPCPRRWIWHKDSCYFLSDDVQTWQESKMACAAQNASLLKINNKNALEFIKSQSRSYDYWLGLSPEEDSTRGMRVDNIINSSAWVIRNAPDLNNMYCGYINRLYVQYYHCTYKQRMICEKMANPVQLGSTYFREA

T3: recombinant cynomolgus CLL-1 extracellular domain (ECD, amino acids 65-265) fused to an N-terminal Flag (cynomolgus monkey)
T3 construct: Construct stated for the immunogen; also called CynoCLL-1 Flag; cynoCLL-1
T3 chain: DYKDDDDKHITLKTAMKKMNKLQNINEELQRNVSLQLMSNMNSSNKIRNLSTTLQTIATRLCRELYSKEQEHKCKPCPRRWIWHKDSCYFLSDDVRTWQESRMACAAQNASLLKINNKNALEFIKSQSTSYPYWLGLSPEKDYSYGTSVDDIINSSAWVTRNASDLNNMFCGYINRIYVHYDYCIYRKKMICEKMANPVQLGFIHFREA

B1: h21C9 (h21C9.L2H3)×38E4v1 TDB (bispecific antibody, V domains shown)
VH 1: EVQLVQSGAEVKKPGASVKVSCKASGYTFTDYYLDWVRQAPGQGLEWIGRVNPYNGGTIYNQKFKGRVTLTRDTSTSTAYLELSSLRSEDTAVYYCARDHYRYDPLLDYWGQGTLVTVSS
VL 1: DIQMTQSPSSLSASVGDRVTITCKASQDVSTAVAWFQQKPGKAPKLLIYSPSYRYTGVPSRFSGSGSGTDFTLTISSLQPEDFATYYCQQLYSTPYTFGQGTKVEIK
VH 2: EVQLVQSGAEVKKPGASVKVSCKASGFTFTSYYIHWVRQAPGQGLEWIGWIYPENDNTKYNEKFKDRVTITADTSTSTAYLELSSLRSEDTAVYYCARDGYSRYYFDYWGQGTLVTVSS
VL 2: DIVMTQSPDSLAVSLGERATINCKSSQSLLNSRTRKNYLAWYQQKPGQSPKLLIYWTSTRKSGVPDRFSGSGSGTDFTLTISSLQAEDVAVYYCKQSFILRTFGQGTKVEIK
B2: 21C9.L2H3E54 (antibody, V domains shown)
VH: B1 VH 1 with N55E
VL: B1 VL 1
B3: humanized 21C9 variant CDRs graft+(F36 and S43(LC))+L69 (HC) (antibody, V domains shown)
VH: B1 VH 1
VL: B1 VL 1 with A43S
B4: 21C9.L2H3D54 (antibody, V domains shown)
VH: B1 VH 1 with N55D
VL: B1 VL 1
B5: 21C9.L2H3A54 (antibody, V domains shown)
VH: B1 VH 1 with N55A
VL: B1 VL 1
B6: 28H12×38E4v1 TDB (bispecific antibody, human IgG1, V domains shown)
VH 1: QVQLQQSGAELVKPGASVKLSCTASGFNIKDTYMHWVKQRPEQGLEWIGRIDPANGDTDYDPKFQGKATVTADTSSNTAYLQLSSLTSEDTAVYYCTISGPPYYVMDYWGQGTSVTVSS
VL 1: DIQMTQSPASLAVSLGQRATISCRASQSVSSSSYSYMHWYQQKPGQPPKLLIKYASNLESGVPARFSGRGSGTDFTLNIHPVEEEDTATYYCQHSWEIPYTFGGGTRLEIK
VH 2: B1 VH 2
VL 2: B1 VL 2
B7: 6E7.L4H1eA54×38E4v1 TDB (bispecific antibody, V domains shown)
VH 1: EVQLVQSGAEVKKPGASVKVSCKASGYSFTDYYMHWVRQAPGQGLEWIGRINPYAGAAFYSQNFKDRVTLTVDTSTSTAYLELSSLRSEDTAVYYCAIERGADLEGYAMDYWGQGTLVTVSS
VL 1: DIQMTQSPSSLSASVGDRVTITCRASQSVSTSSYNYMHWYQQKPGKPPKLLIKYASNLESGVPSRFSGSGSGTDFTLTISSLQPEDFATYYCQHSWEIPLTFGQGTKVEIK
VH 2: B1 VH 2
VL 2: B1 VL 2
B8: 21C9.L2H3S54 (antibody, V domains shown)
VH: B1 VH 1 with N55S
VL: B1 VL 1
B9: 20B1×38E4v1 TDB (bispecific antibody, human IgG1, V domains shown)
VH 1: EVQLQQSGPELVKPGALVKISCKASGYTFTSYDINWLKQRPGQGLEWIGWIYPGDGTTEYNERFKGKATLTADKSSSTAYLQLSSLTSENSAVYFCARSYDYDYAMDYWGQGTSVTVSS
VL 1: DIVLTQSPAIMSASPGEKVTMTCSASSSISYMYWYQQKPGTSPKRWIYDTSKLASGVPARFSGSGSGTSYSLTISSMEAEDAATYYCHQRSSWTFGGGTKLEIK
VH 2: B1 VH 2
VL 2: B1 VL 2
B10: 38E4v1 Fab (Fab, V domains shown)
VH: B1 VH 2
VL: B1 VL 2
notes: Fab; also called 38E4v1 (Fab Biacore measurements)
B11: 6E7.L4H1eE54 (antibody, V domains shown)
VH: B7 VH 1 with A55E
VL: B7 VL 1
notes: IgG
B12: humanized 6E7 variant CDRs graft+K49(LC)+(A67, L69, V71, K73 (HC)) (antibody, V domains shown)
VH: B7 VH 1 with A55N, V68A, T74K
VL: B7 VL 1
B13: 6E7.L4H1eS54 (antibody, V domains shown)
VH: B7 VH 1 with A55S
VL: B7 VL 1
notes: IgG

How the values were obtained:
[1] = molecular target: T1, human CLL-1 on cells (endogenous on …); experiment: cell-based or functional assay
[2] = molecular target: T1, human CLL-1 on cells (endogenous on …); experiment: cell-based or functional assay; remark: listed apart in the source
[3] = molecular target: T2, recombinant human CLL-1 extracellular …; experiment: SPR (Biacore T200), IgG captured by anti-human Fc, CLL-1 as analyte
[4] = molecular target: T3, recombinant cynomolgus CLL-1 …; experiment: as above
[5] = molecular target: T2, recombinant human CLL-1 extracellular …; experiment: SPR (Biacore T200), IgG captured by anti-human Fc, human CLL-1 as analyte
Experimental: The binding affinity of the antibodies in this section was determined by BIAcore™ T200 Format. Briefly, BIAcore™ research grade CM5 chips were activated with 1-ethyl-3-(3-dimethylaminopropyl) carbodiimide (EDC) and N-hydroxysuccinimide (NHS) reagents according to the supplier's instructions. Goat anti-human Fc IgGs were coupled to the chips to achieve approximately 10,000 response units (RU) in each flow cell. Unreacted coupling groups were blocked with 1M ethanolamine. For kinetics measurements, antibodies were captured to achieve approximately 300 RU. Three-fold serial dilutions of human CLL-1 was injected in HBS-P buffer (0.01M HEPES pH7.4, 0.15M NaCl, 0.005% surfactant P20) at 25° C. with a flow rate of 30 μl/min. Association rates (kon) and dissociation rates (koff) were calculated using a 1:1 Langmuir binding model (BIAcore™ T200 Evaluation Software version 2.0). The equilibrium dissociation constant (Kd) was calculated as the ratio koff/kon.

[6] = molecular target: T1, human CLL-1 on cells (endogenous on …); experiment: cell-based or functional assay; remark: listed apart in the source
hCD3ε = molecular target: T4, hCD3ε (human, UniProt P07766 23-126); experiment: SPR (Biacore), Fab
T4 construct: Also used for the value printed only as 'hCD3 (0.05 nM'); also called human CD3ε polypeptide
T4 sequence (P07766 23-126): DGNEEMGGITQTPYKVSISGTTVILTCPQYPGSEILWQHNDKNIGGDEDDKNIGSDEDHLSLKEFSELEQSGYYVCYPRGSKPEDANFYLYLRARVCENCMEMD

Row | Binder | Kd [3] | koff [3] | kon [3] | Kd [4] | koff [4] | kon [4] | also measured
1 | B1 |  |  |  |  |  |  | average killing EC50, EOL-1 [1]: 0.0511 mg/L; average killing EC50, HL-60 [1]: 1.76 mg/L; average killing EC50, human autologous CD14+ [1]: 14.8 ng/ml; EC50 of killing of EOL-1 (other donors) [2]: 0.0163 mg/L
2 | B2 | 0.863 µM | 0.0882 s⁻¹ | 102000 M⁻¹ s⁻¹ | 49.6 µM | 0.0371 s⁻¹ | 748 M⁻¹ s⁻¹ | 
3 | B3 |  |  |  |  |  |  | Kd [5]: 0.0105 µM
4 | B4 |  |  |  | 0.217 µM | 0.00885 s⁻¹ | 40700 M⁻¹ s⁻¹ | 
5 | B5 | 0.622 µM | 0.0692 s⁻¹ | 111000 M⁻¹ s⁻¹ | 48.2 µM | 0.0215 s⁻¹ | 445 M⁻¹ s⁻¹ | 
6 | B6 |  |  |  |  |  |  | Cell killing EC50 (EOL-1 cells, human CD8+ T cells) [6]: > 1 mg/L
7 | B7 |  |  |  |  |  |  | Cell killing EC50 (EOL-1 cells, human CD8+ T cells) [6]: 0.034 mg/L
8 | B8 | 0.286 µM | 0.0405 s⁻¹ | 142000 M⁻¹ s⁻¹ | 5.67 µM | 0.0207 s⁻¹ | 3660 M⁻¹ s⁻¹ | 
9 | B9 |  |  |  |  |  |  | Cell killing EC50 (EOL-1 cells, human CD8+ T cells) [6]: 0.531 mg/L
10 | B10 |  |  |  |  |  |  | Kd (hCD3ε): 0.000389 µM; koff (hCD3ε): 0.00317 s⁻¹; kon (hCD3ε): 8.15e+06 M⁻¹ s⁻¹
11 | B11 | 0.00509 µM | 0.00248 s⁻¹ | 488000 M⁻¹ s⁻¹ | 0.00426 µM | 0.00283 s⁻¹ | 664000 M⁻¹ s⁻¹ | 
12 | B12 |  |  |  |  |  |  | Kd [5]: 0.0014 µM
13 | B13 | 0.0141 µM | 0.0072 s⁻¹ | 510000 M⁻¹ s⁻¹ | 0.00637 µM | 0.00327 s⁻¹ | 513000 M⁻¹ s⁻¹ | 
